This note sets out measurements from paper PMC10950212, “Structure and antigenicity of the divergent human astrovirus VA1 capsid spike” (PLOS Pathogens, 2024).

The term stoichiometry N denotes a count of units in the complex or per binding partner.

This data set concerns the molecule itself. As to the kind of experiment: SEC; Superdex 200 increase 10/300; retention volume compared with Bio-Rad gel filtration standards; 20 mM Tris-HCl pH 8.0, 150 mM NaCl. A general note: SEC sorts molecules by how far they enter the pores of the column.

B1: gastrointestinal HAstV-VA1 capsid spike (HAstV-VA1^gastro spike), residues 408-684 (domain or fragment)
chain: PIPPTGVPVGDFYVCGRMTTLHMGGQSGIQATTLVNGMIYRTDHPEPSTSPVSNWEFTVLENNTIVGAGMGCVWFQKSEALVWTLDGQKLSGWNTLDGVGTTQLTVAWRQHNRTIYGWANVVAWNSEEWHTNAEQPHQPILRLTYWLVKINVLSEPEDFDVVQKSPLAYLEDYTTAQSKSAIQKLNFQTFQKPEGGGTLRAQYSTTPRQGDFAVIWQIGRHNFDMSTGKGTPVESLSDYVMPQQKDAHIGMWYRALTSVGPRSDVLTLHFHLPTVEK
notes: Capsid precursor protein (VP86, ORF2) of human astrovirus VA1, gastrointestinal strain, NCBI YP_003090288.1, spike structural domain residues 408-684; C-terminal thrombin site and 10-histidine tag; tag removed with thrombin before SEC and crystallisation; Homodimer; also called VA1 Spike^Gastro; HAstV-VA1 spike; source: E. coli T7 Express, purified (TALON, thrombin digestion, SEC on Superdex 200 …)
Consider B1, for which the “stoichiometry N” value turned out to be 2.
